The source of these data is article PMC3903436.

Some results are limits rather than exact numbers.

The target in test [1] is MUC16 (CA125), native, membrane-bound on cancer cells (human (endogenous in OVCAR3 and HeLa)) (UniProt Q8WXI7).
Test [2] has the same target. The source holds these as a separate data set.
Test [3] shares this target. Nature of the test: flow cytometry on cells; OVCAR3 cells in suspension incubated with HEK293T-derived culture supernatant containing soluble mesothelin; bound mesothelin detected with anti-FLAG mAb M2 and FITC-conjugated secondary Ab; culture medium alone as negative control. For orientation: A flow cytometer gives signals particle by particle.

“Meso-TR3 (mesothelin-TR3 fusion protein) (from UniProt P50591 39-281; P50591 39-281; P50591 39-281)”: the share of MUC16-positive cells in the HeLa cell pool after Meso-TR3 treatment, by flow cytometry (80% to 54%; non-targeted TR3 did not shift the ratio) in test [1] is over 30%. The substance further came in with a reduction of the luciferase signal (tumor burden) of intraperitoneal OVCAR3 xenografts in NOD/SCID mice at 7 days of i.p. treatment with Meso-TR3 (control and TR3 groups did not respond) in test [2] of 600 fold. “soluble mesothelin (FLAG tagged, GPI anchor-deleted mature form) (ligand)” returned a percent of cells positive for bound mesothelin (FLAG epitope tag) in test [3] of 100%.
